Measured values reported in PMC10865995.

Legend:
Test in all cases: EMSA
SRSF1 E60D = SRSF1 E60D (human, UniProt Q07955 1-248, E60D)
SRSF1 wild type = SRSF1 wild type (human, UniProt Q07955 1-248)
SRSF1 P89S = SRSF1 P89S (human, UniProt Q07955 1-248, P89S)
SRSF1 P89S, sequence (Q07955 whole entry P89S): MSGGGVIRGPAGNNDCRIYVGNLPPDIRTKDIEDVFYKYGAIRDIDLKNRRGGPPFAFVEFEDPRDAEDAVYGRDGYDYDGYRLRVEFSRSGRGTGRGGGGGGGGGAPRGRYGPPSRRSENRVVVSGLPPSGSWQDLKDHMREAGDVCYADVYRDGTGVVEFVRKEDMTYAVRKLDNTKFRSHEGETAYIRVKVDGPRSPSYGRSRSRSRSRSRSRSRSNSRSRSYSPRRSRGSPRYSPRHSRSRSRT

SRSF1 E60D, sequence (Q07955 whole entry E60D): as the sequence (Q07955 whole entry P89S) above, with E60D, S89P counted along it
SRSF1 wild type, sequence (Q07955 whole entry): as the sequence (Q07955 whole entry P89S) above, with S89P counted along it

B1: ssRNA (64mer) (ssRNA)
RNA: UUUCCCAGCACCAGAUUCAGCAUACGUUACCGAUCGUACGUUCGAUGCUGGCUACUGCUAGCUU
SRSF1 E60D
  binding result: binds
SRSF1 wild type
  binding result: binds
SRSF1 P89S
  binding result: no binding
